T1: Mutant C87S NGAL rAg (CHO cell clone #734) (human, UniProt P80188 21-198, glycosylated (CHO))
T1 construct: also called NGAL mutant C87S antigen; mutant C87S NGAL rAg CHO 734
T1 chain: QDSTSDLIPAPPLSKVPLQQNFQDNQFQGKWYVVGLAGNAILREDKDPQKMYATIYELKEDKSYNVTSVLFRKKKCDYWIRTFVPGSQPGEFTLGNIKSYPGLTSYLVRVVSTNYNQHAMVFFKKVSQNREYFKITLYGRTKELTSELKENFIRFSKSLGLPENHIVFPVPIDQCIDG

T2: human NGAL (C87S) produced in E. coli, NGAL(+)mut8 (human, UniProt P80188 21-198, 15N/2H or 13C/15N isotope label (NMR, Example 8); BHQ-10S quencher label (KD titrations, Example 9))
T2 construct: also called BHQ-NGAL; isotope-labeled human NGAL
T2 chain: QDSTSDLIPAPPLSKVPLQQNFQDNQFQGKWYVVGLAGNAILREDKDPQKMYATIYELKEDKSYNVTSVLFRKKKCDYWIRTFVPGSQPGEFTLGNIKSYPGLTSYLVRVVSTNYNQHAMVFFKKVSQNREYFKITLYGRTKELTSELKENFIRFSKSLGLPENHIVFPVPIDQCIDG


Key:
[1] = molecular target: T3, Wild-type NGAL rAg (CHO clone #662) (human, UniProt P80188 21-198, glycosylated (CHO)); experiment: KinExA, IgG in solution
T3 construct: also called NGAL wild-type antigen; wild-type NGAL rAg CHO 662
Protocol: (§1) The amount of free binding sites was determined by injecting the antibody/human NGAL reaction mixture over human NGAL immobilized on solid-phase Polymethyl-methacrylate (PMMA) beads. The free anti-NGAL antibody bound to the human NGAL coated beads were subsequently detected using the fluorescent CY5-conjugated goat anti-mouse polyclonal antibody (GAM-Cy5). The degree of GAM-Cy5 bound was proportional to the amount of anti-NGAL IgG bound to the human NGAL-coated beads. The KD was determined by analyzing the amount of free binding sites versus the amount of antigen present in the reaction sample using software provided by the manufacturer (Sapidyne Instruments, Boise, Id.). Experiments were performed in a PBS, pH 7.4, and 1% BSA reaction diluent.

[2] = molecular target: T1, Mutant C87S NGAL rAg (CHO cell clone …); experiment: KinExA, IgG in solution
Protocol: as §1

[3] = molecular target: T4, wild-type NGAL antigen displayed on yeast (AGA2 fusion) (human, UniProt P80188 21-198); experiment: flow cytometry, mAb titrated on yeast displaying NGAL
T4 construct: also called WT
Protocol: The side chain of each of the NGAL rAg residues identified from the epitope selections was altered by site-directed mutagenesis to alanine to confirm the functional epitope (direct contact residues) of each NGAL mAb subclone.
The change in Gibbs free binding energy (ΔΔG_Ala-WT) was determined to assess the energetic impact of each alanine substitution for mAb binding. The change in Gibbs free binding energy upon alanine substitution was calculated using the following equation [2],
For these experiments, observed fluorescence (F) was used to solve for KD using equation [1]. The KD derived from equation [1] one was then used in equation [2] to derive the change in Gibbs free binding energy upon alanine substitution. The KD is read from the abscissa of each of the curves at the inflection point.

[4] = molecular target: T5, human NGAL antigen (Neutrophil Gelatinase Associated Lipocalin) (human, UniProt P80188 21-198, biotin label in the hybridoma EIAs); experiment: SPR (BIAcore): mAb captured on anti-mouse Fc, 100 nM NGAL
T5 construct: also called NGAL-Bt; biotin labeled NGAL
Protocol: Using BIAcore, NGAL hybrid supernatants are evaluated for relative binding affinity to NGAL and grouped accordingly in NGAL binding epitope groups. The affinity assay was completed on a goat anti-mouse IgG Fc Capture Biosensor as follows. Flow cells were first equilibrated with a running buffer (hereinafter “Running Buffer”) that contains HBS-EP buffer spiked with 0.1% BSA and 0.1% CM-Dextran), at 10 μL/min. Next, 13 μL of supernatant was floated across individual flow cells capturing anti-NGAL antibody from the supernatant onto the biosensor, and with one flow cell being left blank as a reference flow cell. The flow cells then were washed for 5 minutes at 50 μL/min with Running Buffer, and 150 μL of NGAL antigen at a 100 nM concentration was injected across the chip followed by 5 minutes of Running Buffer. The relative binding kinetics, association and dissociation, were monitored via sensorgrams. The sensorgrams were analyzed using Scrubber 2.0 software (BioLogic Software Pty Ltd., Australia) to determine association and dissociation rates, as well as overall KD.

[5] = molecular target: T2, human NGAL (C87S) produced in E. coli, …; experiment: DC-FCCS sandwich formation in solution; second antibody mAb 903
Protocol: (§2) Samples were placed in a 96-microwell optical bottom plate (Nalge Nunc International, Rochester, N.Y.). The excitation wavelength was set at 810 nm, 3 mW on the sample. Sampling rate was set at 200 KHz and 10 million points were collected for each measurement. Each sample was measured twice. Experiments were performed on each sample after one-hour incubation.
(§3) Labeled antibodies were mixed at equal concentration (40 μL of 10 nM mAbs) and ligand (15 nM NGAL) was added to the solution. Cross-correlation curves before and after adding NGAL were calculated from the data sets acquired in each channel and the data were normalized.
(§4) For illustration purposes, a relative number was assigned to each antibody pair, which, in fact, is the ratio of Gx(0) values before and after the addition of NGAL to the antibodies (Table 13). All ratio values were corrected for the background. A value of “1” indicates no sandwich formation, values between 1.1 and 2.5 indicate a poor sandwich formation, and all values above 2.6 indicate productive antibody pairing.

[6] = molecular target: T2, human NGAL (C87S) produced in E. coli, …; experiment: DC-FCCS sandwich formation in solution; second antibody mAb 2322
Protocol: as §2, §3, §4

[7] = molecular target: T2, human NGAL (C87S) produced in E. coli, …; experiment: fluorescence quenching titration in solution: ALEXA 488-labelled mAb at 0.05 nM, BHQ-labelled NGAL varied, fraction bound against free BHQ-NGAL
Protocol: The equilibrium dissociation constants (KD) of NGAL and six anti-NGAL antibodies were measured in direct binding experiments. […] After 30 minutes incubation, all samples were measured on an SLM 8100 photon counting spectrofluorimeter. Samples were excited at 480 nm, and the emission was collected through a 530 nm (30 nm bandwidth) interference filter (Chroma Technology Corp., Rockingham, Vt.). All binding measurements were performed in 10 mM HEPES buffer, pH 7.4, containing 0.15 M NaCl, 3 mM EDTA, and 0.005% surfactant P20.
where Ligandₜₒₜₐₗ and ABSₜₒₜₐₗ are the BHQ-NGAL concentration and total antibody binding sites, respectively, and Fbound is the fraction of bound antibody sites. The binding data were fitted with a simple binding model to obtain the equilibrium dissociation constant (KD) according to equation [4]: […]

Kd [1] [nM]	Kd [2] [nM]	Kd [3] [nM]	ΔKD (KD against KD of WT) [3] [fold]	ΔΔG Ala-WT [3] [kJ/mol]	Kd [4] [nM]	koff [4] [s⁻¹]	kon [4] [M⁻¹ s⁻¹]	ratio of Gx(0) before and after adding NGAL [5]	ratio of Gx(0) before and after adding NGAL [6]	EC50 (read off the curve) [7] [nM]	Binder
0.32	1.1	0.204	1	0	1.01	0.000272	269000	1	3.7	~1	anti-NGAL monoclonal antibody 1-903-430 (antibody, V domains shown) VH: KIQLVQSGPELKKPGETVKISCKASGYTFTNYGMNWVKQAPGKGLKWMGWININTGEPTYAEEFKGRFAFSLETSATTAFLQINNLKNEDTATYLCARDSYSGGFDYWGQGTIVTVSS VL: DIVMTQSPSSLSVSAGEKVTLSCKSSQSLLISGDQKNYLAWYQQKPGQPPKLLIYGASTRDSGVPDRFTGSGSGADFTLTISSVQAEDLAVYYCQNDHSFPPTFGAGTKLELKR
0.024	0.023	0.0081	1	0	0.155	7.28e-05	468000	3.5	0.7	~0.06	anti-NGAL monoclonal antibody 1-2322-455 (antibody, V domains shown) VH: EVQLVESGGGLVQPGGSLKLSCAASGFTFNNYYMSWVRQTPERRLEWVAYISSSGGSTYYSDSVRGRFTISRDTARNTLYLQMTSLKSEDTAMYYCARHFGDYSYFDYWGQGTTLTVSS VL: DIQMTQSPASLSASVGETVTITCRASENFYSYLAWYQQKQGKSPQLLVYNAKTLAEGVPSRFSGSGSGTQFSLKINSLQPEDFGTYYCQHHYDIPLTFGAGTKLELKR

— patent US20090263894A1 (AbbVie / Abbott, published 2009)
